“And” between values parts separate entries of the source, which are not always exact repeats. Identical values can stand only once.

Assay [1] deals with P. aeruginosa PAO1. Nature of the assay: ex vivo porcine corneas as model for bacterial keratitis. Type of assay: cell-based. As to conditions: 5 μg applied 16-20 h after colonization, further 16-20 h incubation. On the procedure:
(§1) Preparation of porcine corneas. Porcine eyes were acquired from the nearest slaughterhouse. Enucleated eyes were stored at −70° C. Before the start of experiment, eyes were transferred to 4° C. for 1 hour, then to room temperature for 1-2 hours until the eyeballs were completely defrosted. Then eyeballs were individually placed in sterile plastic containers and submerged for 5 min in 2.5% Povidone-iodine (Betadine 100 mg/ml; EGIS Pharmaceuticals PLC), then twice washed with sterile PBS. The corneas were excised with sterile surgical blade No. #12. The excised corneas were stored in Minimum Essential Medium (MEM) supplemented with Non-Essential Amino Acids, L-Glutamine (2 mM), penicillin (200 U/ml)+spectinomycin (25 μg/ml) until further use at 4° C. up to two weeks.
(§2) Cornea infection and pyocin treatment. P. aeruginosa was grown overnight from frozen stock. Next morning, the culture was diluted 100 fold by fresh LB medium, and grown until OD595=˜0.6 (˜6 hours). Bacteria were collected by centrifugation and re-suspended in PBS. The dissected corneas were placed on agarose-gelatin (0.5% each) solid support in a 6-well culture plate containing 800 μL MEM with antibiotics (100 U/ml penicillin, 25 μg/ml spectinomycin), then three horizontal and 3 vertical scratches were made using a sterile 25 gauge needle. 3×10^4 CFU of P. aeruginosa ATCC 19660 strain or 0.4×10^4 CFU of PAO1 strain were applied to cornea and incubated for 16-20 hours in 37° C. CO2 incubator ([…]). 5 corneas were used for each experimental point. After incubation with P. aeruginosa, the corneas were visually inspected for opacity. The corneas which were clear and without signs of infection were considered as non-infected and discarded from further study. 5 μg of S5-PmnH (in 5 μl of PBS) or 5 μl of PBS were applied to infected corneas and incubated for additional 16-20 hours in 37° C. CO2 incubator.
(§3) Homogenization and CFU counting. Prior the homogenization the corneas were washed 3 times for 10 min in 50 ml sterile PBS with occasional agitation. Each cornea was chopped in 4 equal parts, trying to get rid of sclera. […]

In assay [2] the test system is P. aeruginosa ATCC 19660. Described as above. The assay is classed as cell-based. As to conditions: 5 μg applied 16-20 h after colonization, further 16-20 h incubation. The method, then: as §1, §2, §3
The subject of assay [3] is P. aeruginosa ATCC 19660. Briefly: murine keratitis model, cytotoxic strain (C57BL/6 mice). The settings on record: for viable bacteria isolated, one mouse: only mouse with viable bacteria. Type of assay: in vivo. The method, then: (§4) The inbred mice of C57BL/6 strain of both sexes in equivalent numbers were used for the research. 2-6 months old, adult female and adult male mice were purchased from the Vilnius University vivarium of laboratory animals. The animals throughout the period of the experiment were given standard chow and drinking water ad libitum. Animals were housed in the individual plastic cages in a 12 h light/dark cycle at 21-23° C. All regulated procedures on living animals were approved by The Lithuanian Ethics Committee of Biomedical Research (Protocol no. B1-442) and were carried out in accordance with the European Union legislation of OECD (directive 2010/63/EU). The experiments were carried out in Biological research center of Lithuanian University of Health Sciences.
(§5) For P. aeruginosa infection and keratitis induction the mice were anesthetized by Ketamine and Xylazine 90:9 mg/kg intraperitoneal injection. The cornea of the left eye of each mouse was visualized under a stereoscopic microscope, and three 1 mm scratches were made using a sterile 25 gauge needle. A 10 μL aliquot containing 4×10^6 cells of P. aeruginosa ATCC 19660 (cytotoxic strain) or PAO1 ATCC 15692 (invasive strain) was applied to the corneal surface. Depending on the experiment, the treatment was started 30 min or 6 h post infection. 10 μl aliquot containing 0.14 mg of tobramycin or 20 μg of S5-PmnH (both containing 0.5% hydroxypropyl methylcellulose (HPMC)) or PBS containing 0.5% HPMC was applied as one drop of substance to the each eye. HPMC is used as artificial tears and was used in order to thicken the tears film and prolong the presence of the applied product on the surface of the cornea. The treatment was continued for five days twice daily. Mice were euthanized by cervical dislocation 1, 3, 5 days post infection, and the eyeballs were collected and homogenized for viable bacteria count.
(§6) The eyes were examined and photographed with a dissection microscope equipped with a digital camera at 1, 3 and 5 dpi to monitor the disease progression. At 1, 3 and 5 dpi disease severity was visually graded by using an established corneal damage scale: 0, the pupil was partially or fully covered by clear or slight opacity; +1, the anterior segment was partially or fully covered by slight opacity; +2, the pupil was partially or fully covered by dense opacity; +3, the entire anterior segment was covered by dense opacity; and +4, corneal perforation^40.
(§7) Histopathology experiments were carried out at Lithuanian University of Health Sciences, Department of Veterinary Pathobiology of Veterinary Academy. One randomly chosen mice of each study group was used for histopathology experiments. Enucleated eyes were preserved in 10% formaldehyde. Eyes were paraffin-embedded, cut into 3-μm-thick sections, deparaffinised, rehydrated and used for preparation of hematoxylin/eosin stained samples.

In assay [4] the test system is P. aeruginosa PAO1. Briefly: murine keratitis model, invasive strain (C57BL/6 mice). The assay is classed as in vivo. On the procedure:
as §4, §5, §6, §7

[5] abbreviates: treatment started 30 min post infection.
The mark [6] stands for this setting: treatment started 6 h post infection, 1 dpi.

B1: S5-PmnH (protein)
chain: MSNDNEVPGSMVIVAQGPDDQYAYEVPPIDSAAVAGNMFGDLIQREIYLQKNIYYPVRSIFEQGTKEKKEINKKVSDQVDGLLKQITQGKREATRQERVDVMSAVLHKMESDLEGYKKTFTKGPFIDYEKQSSLSIYEAWVKIWEKNSWEERKKYPFQQLVRDELERAVAYYKQDSLSEAVKVLRQELNKQKALKEKEDLSQLERDYRTRKANLEMKVQSELDQAGSALPPLVSPTPEQWLERATRLVTQAIADKKQLQTTNNTLIKNSPTPLEKQKAIYNGELLVDEIASLQARLVKLNAETTRRRTEKELTPDEKAAYTDAVSFVSTANEQMLQKYGANLSKVAQDMQAEIAGKKVRSYAEAMATFEKISANPAMKLNALDTQAVVDALNALDKASFADNITRLGKAFGVVGKVVQAEAIREKTVSGFQTGDWKPLMLELEAMAVGTGAGILLATSMAFFFPVFASAAAGVVVVALMMAATAAYFDAAKVDEINNLILN
modifications: Chimeric S5-PmnH
Take B1: the “burden in treated corneas (average)” value in the assay with P. aeruginosa PAO1 [1] is on record as 10 CFU per cornea. Besides, the “reduction of burden vs untreated corneas” value in the assay with P. aeruginosa PAO1 [1] is recorded as 6.6 log10. In the assay with P. aeruginosa ATCC 19660 [2], the “reduction of CFU number” value is 5.3 log10. The “histopathology of infected treated eyes” value in the assay on P. aeruginosa ATCC 19660 [3] (setting [5]) is given as “Only weak oedema in the corneal stroma”; with P. aeruginosa ATCC 19660 [3] (setting [6]) it was “signs of acute inflammation of cornea”; with P. aeruginosa ATCC 19660 [3] (treatment started 6 h post infection, 3 and 5 dpi), “no marked aberrations”. For the same molecule, the “signs of disease (visual inspection, clinical score)” value with P. aeruginosa ATCC 19660 [3] (setting [5]) was “No signs of disease were observed in majority of samples”. Also, in the assay on P. aeruginosa ATCC 19660 [3] (treatment started 30 min post infection, twice daily, 1, 3 or 5 dpi, 20 μg S5-PmnH or 0.14 mg tobramycin per eye), the “viable bacteria isolated from infected eyes” value is “no viable P. aeruginosa were isolated”. Also, the clinical score evaluation result was “Only mild disease signs were observed” in the assay on P. aeruginosa ATCC 19660 [3] (treatment started 6 h post infection, 1 and 3 dpi, two S5-PmnH-treated and one tobramycin-treated mice); “all corneas were completely clear” with P. aeruginosa ATCC 19660 [3] (treatment started 6 h post infection, 5 dpi). The “viable bacteria isolated, one mouse” value in the assay with P. aeruginosa ATCC 19660 [3] (setting [6]) is recorded as 3.6 log10 CFU/cornea; in the assay with P. aeruginosa ATCC 19660 [3] (treatment started 6 h post infection, 3 dpi) it was 5 log10 CFU/cornea. Besides, the viable bacteria isolated entry in the assay on P. aeruginosa ATCC 19660 [3] (treatment started 6 h post infection, 5 dpi, three mice) was “No viable bacteria were isolated”. In addition, the “histological examination of infected treated eyes” value in the assay on P. aeruginosa PAO1 [4] (1 dpi) is on record as “signs of acute inflammation of cornea”; with P. aeruginosa PAO1 [4] (3 dpi) it was “signs of acute inflammation of cornea”; in the assay with P. aeruginosa PAO1 [4] (day 5), “no aberrations”. Also, the “average reduction of bacterial burden vs mock-treated” value with P. aeruginosa PAO1 [4] (setting [6]) was determined as 1.04 log 10 CFU/cornea. Also, the “viable bacteria in cornea, individual mouse” value in the assay on P. aeruginosa PAO1 [4] (treatment started 6 h post infection, 3 dpi, third mouse) is recorded as 2.38 log 10 CFU. Also, the “mice from which no viable bacteria were isolated” value in the assay on P. aeruginosa PAO1 [4] (treatment started 6 h post infection, 3 dpi, three mice per group) was “two”. Moreover, the “viable bacteria in cornea, individual mice” value in the assay with P. aeruginosa PAO1 [4] (treatment started 6 h post infection, 5 dpi, mice with bacteria) is 5.14 log 10 CFU/cornea and 3.34 log 10 CFU/cornea. In the assay on P. aeruginosa PAO1 [4] (treatment started 6 h post infection, 5 dpi, three mice per group), the “mice from which no bacteria were isolated” value is listed as “one”.

These data come from patent US20250188133A1, “CHIMERIC BACTERIOCINS AND METHOD FOR THE CONTROL OF PSEUDOMONAS” (priority 2022, published 2025).
